# Measurements from patent US5472872.
# Assays:
# [1] = biological target: T1, R.CviJI restriction endonuclease (Chlorella virus IL-3A) (UniProt P52283); experiment: cleavage_in_vitro
# T1 sequence: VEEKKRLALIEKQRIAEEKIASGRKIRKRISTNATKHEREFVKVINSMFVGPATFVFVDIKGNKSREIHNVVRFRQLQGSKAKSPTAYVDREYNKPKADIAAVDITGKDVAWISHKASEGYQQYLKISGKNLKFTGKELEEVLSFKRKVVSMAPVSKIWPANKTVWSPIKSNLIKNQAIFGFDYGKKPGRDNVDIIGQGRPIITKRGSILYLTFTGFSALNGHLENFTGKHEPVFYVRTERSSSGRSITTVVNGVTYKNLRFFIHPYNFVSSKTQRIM
# [2] = test system: M.CviJI methyltransferase (Chlorella virus IL-3A); experiment: cell_activity; conditions: p710 in E. coli; SacI 90%, HindIII 25%; improved-translation plasmids appeared 100% resistant
# [3] = CviJI*, 5 uncleaved, CviJI** 1 of 76 (Table 5)
# [4] = CviJI*, 3 uncleaved, CviJI** 0 of 76 (Table 5)
substance,measurement,setting,value
AGCA (double strand) [AGCA site in pUC19 (relaxed R2 PuGCPu)],activity (cleaved junctions of 200),[1]; [3],13
AGCC (double strand) [AGCC site in pUC19 (normal PuGCPy)],activity (cleaved junctions of 200),"[1]; CviJI* (Mg, ATP, DTT), 1 uncleaved, CviJI** 13 of 76 (Table 5)",23
AGCG (double strand) [AGCG site in pUC19 (relaxed R2 PuGCPu)],activity (cleaved junctions of 200),"[1]; CviJI*, 11 uncleaved, CviJI** 0 of 76 (Table 5)",12
AGCT (double strand) [AGCT site in pUC19 (normal PuGCPy)],activity (cleaved junctions of 200),"[1]; CviJI*, 0 uncleaved, CviJI** 25 of 76 (Table 5)",35
CGCA (double strand) [CGCA site in pUC19 (R3 PyGCPu)],activity (cleaved junctions of 200),"[1]; CviJI*, 12 uncleaved, CviJI** 0 of 76 (Table 5)",0
CGCC (double strand) [CGCC site in pUC19 (relaxed R1 PyGCPy)],activity (cleaved junctions of 200),"[1]; CviJI*, 4 uncleaved, CviJI** 0 of 76 (Table 5)",11
CGCG (double strand) [CGCG site in pUC19 (R3 PyGCPu)],activity (cleaved junctions of 200),"[1]; CviJI*, 27 uncleaved, CviJI** 0 of 76 (Table 5)",0
CGCT (double strand) [CGCT site in pUC19 (relaxed R1 PyGCPy)],activity (cleaved junctions of 200),"[1]; CviJI*, 7 uncleaved, CviJI** 2 of 76 (Table 5)",17
GGCA (double strand) [GGCA site in pUC19 (relaxed R2 PuGCPu)],activity (cleaved junctions of 200),[1]; [4],11
GGCC (double strand) [GGCC site in pUC19 (normal PuGCPy)],activity (cleaved junctions of 200),"[1]; CviJI*, 1 uncleaved, CviJI** 16 of 76 (Table 5)",24
GGCG (double strand) [GGCG site in pUC19 (relaxed R2 PuGCPu)],activity (cleaved junctions of 200),"[1]; CviJI*, 8 uncleaved, CviJI** 4 of 76 (Table 5)",18
GGCT (double strand) [GGCT site in pUC19 (normal PuGCPy)],activity (cleaved junctions of 200),"[1]; CviJI*, 0 uncleaved, CviJI** 12 of 76 (Table 5)",13
TGCA (double strand) [TGCA site in pUC19 (R3 PyGCPu)],activity (cleaved junctions of 200),"[1]; CviJI*, 19 uncleaved, CviJI** 0 of 76 (Table 5)",0
TGCC (double strand) [TGCC site in pUC19 (relaxed R1 PyGCPy)],activity (cleaved junctions of 200),"[1]; CviJI*, 10 uncleaved, printed TOCC in Table 2, CviJI** 2 of 76 (Table 5)",13
TGCG (double strand) [TGCG site in pUC19 (R3 PyGCPu)],activity (cleaved junctions of 200),[1]; [4],0
TGCT (double strand) [TGCT site in pUC19 (relaxed R1 PyGCPy)],activity (cleaved junctions of 200),[1]; [3],10
plasmid p710/pBMC5 (G/A)GC(T/C/G) sites,activity (% resistance to HaeIII),[2],90
